The text below walks through data of US12606852B2, “Conversion of lignin-derived monomers to muconate by engineered pseudomonas” (Alliance for Sustainable Energy, LLC, priority 2021, dated 2026).

Assay in all cases: purified protein, by the assay type
Substrate in data set [1]: O=C(O)c1ccc(O)cc1
Substrate in data set [2]: NC(=O)C1=CN([C@@H]2O[C@H](COP(=O)(O)OP(=O)(O)OC[C@H]3O[C@@H](n4cnc5c(N)ncnc54)[C@H](OP(=O)(O)O)[C@@H]3O)[C@@H](O)[C@H]2O)C=CC1
Substrate in data set [3]: NC(=O)C1=CN([C@@H]2O[C@H](COP(=O)(O)OP(=O)(O)OC[C@H]3O[C@@H](n4cnc5c(N)ncnc54)[C@H](O)[C@@H]3O)[C@@H](O)[C@H]2O)C=CC1
Conditions: pH 8.0; 25.0 °C.

Where “and” joins values, the source holds several entries; their conditions need not be identical. Identical values can stand only once.

B1: Pseudomonas putida KT2440 PobA (para-hydroxybenzoate-3-hydroxylase, PHBH), native, PP_3537, tagless, pobA_EC gene SEQ ID NO: 1 (Pseudomonas putida KT2440) (protein)
chain: MKTQVAIIGAGPSGLLLGQLLHKAGIDNIIVERQTAEYVLGRIRAGVLEQGTVDLLREAGVAERMDREGLVHEGVELLVGGRRQRLDLKALTGGKTVMVYGQTEVTRDLMQAREASGAPIIYSAANVQPHELKGEKPYLTFEKDGRVQRIDCDYIAGCDGFHGISRQSIPEGVLKQYERVYPFGWLGLLSDTPPVNHELIYAHHERGFALCSQRSQTRSRYYLQVPLQDRVEEWSDERFWDELKARLPAEVAADLVTGPALEKSIAPLRSLVVEPMQYGHLFLVGDAAHIVPPTGAKGLNLAASDVNYLYRILVKVYHEGRVDLLAQYSPLALRRVWKGERFSWFMTQLLHDFGSHKDAWDQKMQEADREYFLTSPAGLVNIAENYVGLPFEEVA
On to B1, for which the Km in data set [1] (other: NADPH as reducing equivalent, NADPH detection (340 nm), air-saturated, 300 μM NAD(P)H, pH 8, 25° C.) amounted to 18 ± 2 µM; in data set [1] (other: NADPH as reducing equivalent, O2 detection (oxygraph), air-saturated, 300 μM NAD(P)H, pH 8, 25° C.), 21 ± 1 µM; in data set [2] (other: NADPH varied, NADPH detection (340 nm), air-saturated, 200 μM 4-hydroxybenzoate, pH 8, 25° C.) it was 43 ± 3 µM; in data set [2] (other: NADPH varied, O2 detection (oxygraph), air-saturated, 200 μM 4-hydroxybenzoate, pH 8, 25° C.), 66 ± 6 µM.

B2: Paenibacillus sp. JJ-1b PraI (para-hydroxybenzoate-3-hydroxylase, PHBH), BAH79107, tagless, praI_EC gene SEQ ID NO: 3 (Paenibacillus sp.) (protein)
chain: RTQVGIIGAGPAGLLLSHLLYLQGIESIIIENRTREEIEGTIRAGVLEQGTVDLMNQMGVGARMMKEGHFHEGFELRFNGRGHRINVHELTGGKYVTVYAQHEVIKDLVAARLQTGGQIHFNVGDVSLHDVDTSSPKIRFRPNKDGELQEIECDFIAGCDGFRGPSRPAIPQSVRKEYQKVYPFSWLGILVEAPPSAHELIYANHERGFALVSTRSPQIQRLYLQVDAQDHIDNWSDDRIWSELHARLETRDGFKLLEGPIFQKGIVSMRSFVCDPMQHGRLFLAGDAAHIVPPTGAKGLNLAAADVQVLARGLEAYYKAGKMEILNRCTEICLRRIWKAERFSWFMTTMLHRDQGHTPFERGIQLAELDYVTSSRAASTSLAENYIGLPMEF
For the protein B2, the Km in data set [3] is 49 ± 3 µM and 46 ± 4 µM; in data set [1] (pH 8.0, 25.0 °C) it was 16 ± 1 µM and 19 ± 2 µM and 18 ± 1 µM; in data set [2] (pH 8.0, 25.0 °C), 27 ± 1 µM and 33 ± 2 µM.

What is called Km is the concentration of substrate that gives half-maximal velocity.
